{"source": "patent US20100330100A1", "experiment_in_all_cases": "whole cell ELISA on immobilized PA103 strain, 50 µg/well IgG", "key": {"[1]": {"target": "PA4710 protein on the cell surface of Pseudomonas aeruginosa PA103 strain (Pseudomonas aeruginosa)"}, "[2]": {"target": "PA4710 protein on the cell surface of Pseudomonas aeruginosa PA103 strain (Pseudomonas aeruginosa)", "remark": "listed apart in the source"}, "[3]": {"target": "PA4710 protein on the cell surface of Pseudomonas aeruginosa PA103 strain (Pseudomonas aeruginosa)", "remark": "listed apart in the source"}}, "note": "Like-named read-outs stand apart in the source and are kept apart here.", "data": [{"substance": "negative control IgG fraction purified from control rat sera obtained by administering only adjuvant (antibody)", "values": [{"measurement": "absorbance at 450 nm", "setting": "[1]", "result": 0.092, "unit": "absorbance"}, {"measurement": "absorbance at 450 nm", "setting": "[2]", "result": 0.28, "unit": "absorbance"}, {"measurement": "absorbance at 450 nm", "setting": "[3]", "result": 0.244, "unit": "absorbance"}]}]}
